From PMC4752478, “Probing the Catalytic Mechanism of Vibrio harveyi GH20 β-N-Acetylglucosaminidase by Chemical Rescue” (PLoS ONE, 2016)
Structures can show the parent of a compound that is named as a salt.

Key:
VhGlcNAcase = molecular target: T1, VhGlcNAcase (Vibrio harveyi, UniProt D9ISE0); assay: biochemical; settings: read-out: Specific activity (nmol/min/μg) / 1 M HCOONa
T1 sequence (D9ISE0 1-642): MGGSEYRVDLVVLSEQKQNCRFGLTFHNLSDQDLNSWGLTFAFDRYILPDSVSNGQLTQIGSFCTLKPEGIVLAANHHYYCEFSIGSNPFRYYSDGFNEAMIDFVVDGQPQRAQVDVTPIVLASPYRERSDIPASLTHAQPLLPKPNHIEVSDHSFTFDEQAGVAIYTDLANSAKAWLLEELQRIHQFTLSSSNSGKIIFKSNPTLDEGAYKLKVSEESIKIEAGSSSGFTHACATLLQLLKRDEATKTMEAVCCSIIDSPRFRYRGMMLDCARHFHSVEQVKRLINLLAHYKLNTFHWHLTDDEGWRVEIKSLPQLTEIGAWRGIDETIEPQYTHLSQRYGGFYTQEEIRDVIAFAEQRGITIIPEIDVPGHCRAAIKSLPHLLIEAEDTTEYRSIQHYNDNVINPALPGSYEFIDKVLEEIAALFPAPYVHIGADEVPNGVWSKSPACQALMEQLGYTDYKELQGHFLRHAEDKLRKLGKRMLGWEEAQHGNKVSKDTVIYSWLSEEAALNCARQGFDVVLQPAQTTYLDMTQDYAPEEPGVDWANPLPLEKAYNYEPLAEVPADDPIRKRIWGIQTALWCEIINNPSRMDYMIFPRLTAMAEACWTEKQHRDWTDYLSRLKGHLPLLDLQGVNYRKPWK

[1] = test system: CC(=O)N[C@H]1[C@H](Oc2ccc([N+](=O)[O-])cc2)O[C@H](CO)[C@@H](O)[C@@H]1O; assay: purified protein; settings: no sodium formate, 100 mM sodium phosphate pH 7.0, 37°C

| Compound | activity at 1 M (VhGlcNAcase) [%] | Km [1] [µM] | kcat [1] [s⁻¹] | kcat/Km [1] [M⁻¹ s⁻¹] |
| --- | --- | --- | --- | --- |
| O=CO [sodium formate] | 80 |  |  |  |
| VhGlcNAcase (Vibrio harveyi; D437A) |  | 390 ± 32 | 0.14 ± 0.01 | 360 |
